Reference: patent publication US20180187185

Tests used:
Experiment in all cases: cell_activity
[1] = test system: Bmpr2 FWD RTN (Ralstonia TALE 16 EBEs in Xanthomonas TAL backbone-FokI) (Ralstonia (TALE repeats); Xanthomonas backbone); conditions: RTN pair p1+p2, Rat C6, Surveyor 250 bp band; 5.43% by 150 bp band
[2] = test system: Bmpr2 XTN (Xanthomonas TALEN-FokI pair) (Xanthomonas); conditions: TALEN pair, Rat C6, Surveyor 250 bp band; 3.66% by 150 bp band; XTN RVDs and half-sites not stated
[3] = test system: AAVS1 TALE-Clo051 (Clo051-XTN) (Xanthomonas TALE); conditions: average of replicates; locus inferred AAVS1; sequencing gave 9.3% indels (FIG. 11)
[4] = test system: AAVS1 TALE-FokI (FokI-XTN) (Xanthomonas TALE); conditions: average of replicates; locus inferred AAVS1; sequencing gave 6.5% indels (FIG. 12)
[5] = test system: Bmpr2 REV RTN (Ralstonia TALE 16 EBEs in Xanthomonas TAL backbone-FokI) (Ralstonia (TALE repeats); Xanthomonas backbone); conditions: RTN pair p1+p2, Rat C6, Surveyor 250 bp band; 5.43% by 150 bp band; printed SEQ 150 differs from SEQ 148 complement at position 5

“TTGATAGTCGCCTTATGT (double strand) [Bmpr2 forward half-site]” was tested. Which activity [1] did it give?
The activity was 1.82 % cutting.

With “TTGATAGTCGCCTTATGTTTTGGATACAGAATGTTGACAGGTAAACGAAATA (double strand) [Bmpr2 full TALEN target site]” as the substance, how does the activity [2] read?
Its activity is 5.75 % cutting.

For AAVS1 target locus, which activity [3] is on record?
The activity was 8.1 % cutting.

What about the activity [4] of the same substance?
The activity was 7.1 % cutting.

For “TGACAGGTAAACGAAATA (double strand) [Bmpr2 reverse half-site (complement of the printed strand)]”, which activity [5] is on record?
Its activity is 1.82 % cutting.
